Numbering of substitutions follows the chain as printed. Names and notes keep the numbering of the source.
B1: K375D: ADA2 variant SEQ ID NO:23 (protein)
chain: IDETRAHLLLKEKMMRLGGRLVLNTKEELANERLMTLKIAEMKEAMRTLIFPPSMHFFQAKHLIERSQVFNILRMMPKGAALHLHDIGIVTMDWLVRNVTYRPHCHICFTPRGIMQFRFAHPTPRPSEKCSKWILLEDYRKRVQNVTEFDDSLLRNFTLVTQHPEVIYTNQNVVWSKFETIFFTISGLIHYAPVFRDYVFRSMQEFYEDNVLYMEIRARLLPVYELSGEHHDEEWSVKTYQEVAQKFVETHPEFIGIKIIYSDHRSKDVAVIAESIRMAMGLRIKFPTVVAGFDLVGHEDTGHSLHDYKEALMIPAKDGVKLPYFFHAGETDWQGTSIDRNILDALMLNTTRIGHGFALSKHPAVRTYSWKDDIPIEVCPISNQVLKLVSDLRNHPVATLMATGHPMVISSDDPAMFGAKGLSYDFYEVFMGIGGMKADLRTLKQLAMNSIKYSTLLESEKNTFMEIWKKRWDKFIADVATK
modifications: human ADA2 K372D, mature numbering
B2: K455E: ADA2 variant SEQ ID NO:27 (protein)
chain: B1 chain with D372K, K452E
modifications: human ADA2 K452E, mature numbering
B3: R23D: ADA2 variant SEQ ID NO:29 (protein)
chain: B1 chain with R20D, D372K
modifications: human ADA2 R20D, mature numbering
B4: K14A/K374A: ADA2 variant SEQ ID NO:58 (protein)
chain: B1 chain with K11A, K371A, D372K
modifications: human ADA2 K11A/K371A, mature numbering
B5: R369A: ADA2 variant SEQ ID NO:31 (protein)
chain: B1 chain with R366A, D372K
modifications: human ADA2 R366A, mature numbering
B6: K14E: ADA2 variant SEQ ID NO:15 (protein)
chain: B1 chain with K11E, D372K
modifications: human ADA2 K11E, mature numbering
B7: R23A: ADA2 variant SEQ ID NO:28 (protein)
chain: B1 chain with R20A, D372K
modifications: human ADA2 R20A, mature numbering
B8: R23A/K374A: ADA2 variant SEQ ID NO:57 (protein)
chain: B1 chain with R20A, K371A, D372K
modifications: human ADA2 R20A/K371A, mature numbering
B9: K14A/R23A/K374A: ADA2 variant SEQ ID NO:56 (protein)
chain: B1 chain with K11A, R20A, K371A, D372K
modifications: human ADA2 K11A/R20A/K371A, mature numbering
B10: R369E: ADA2 variant SEQ ID NO:33 (protein)
chain: B1 chain with R366E, D372K
modifications: human ADA2 R366E, mature numbering
B11: K375A: ADA2 variant SEQ ID NO:22 (protein)
chain: B1 chain with D372A
modifications: human ADA2 K372A, mature numbering
B12: K375E: ADA2 variant SEQ ID NO:24 (protein)
chain: B1 chain with D372E
modifications: human ADA2 K372E, mature numbering
B13: K374A: ADA2 variant SEQ ID NO:19 (protein)
chain: B1 chain with K371A, D372K
modifications: human ADA2 K371A, mature numbering
B14: K14A/R23A: ADA2 variant SEQ ID NO:55 (protein)
chain: B1 chain with K11A, R20A, D372K
modifications: human ADA2 K11A/R20A, mature numbering
B15: R369D: ADA2 variant SEQ ID NO:32 (protein)
chain: B1 chain with R366D, D372K
modifications: human ADA2 R366D, mature numbering

What was measured:
[1] = Heparin binding ELISA (heparin coated microtiter plate); conditions: 3 μM protein
Procedure: A 96-well plate was coated with 100 μL of 200 μg/mL heparin sodium salt (Calibochem, EMD Milipore, Billerica, Mass.; Cat. No. 375095) in Na2CO3 buffer (pH 9.6), overnight at 4° C. The wells were blocked with 5% milk in PBS, and washed 6 times with PBS. 3 μM of select rHuADA2 variants (see Table 20), WT rHuADA2 (positive control) and WT rHuADA1 (negative control) were added to the wells individually and incubated for 2 hours at room temperature, followed by washing 6 times with PBS. 100 μL of 1:1000 diluted horseradish peroxidase (HRP)-anti-FLAG antibody (Abcam, Cambridge, UK; Cat. No. Ab1238) was added to the wells to detect binding and incubated at room temperature for 1 hour. The ELISA reactions were developed by adding the 3,3′,5,5′-Tetramethylbenzidine (TMB) substrate solution (Pierce, Thermo Fisher Scientific, Rockford, Ill.) according the manufacturer's instructions and reading the optical density at 450 nm (OD450) on a plate reader.

[2] = Heparin-affinity chromatography (heparin-Sepharose, SDS-PAGE); format: binding; conditions: for Heparin Column Binding: compared to WT rHuADA2, 0.3 mg/mL protein
Procedure: To assess binding of variants to heparin, heparin-affinity chromatography was employed to identify heparin-bound variants. Heparin binding was tested by mixing 35 μL of rHuADA2 WT and variants with 20 μL heparin-Sepharose™ resin (GE Healthcare, Pittsburgh, Pa.; Cat. No. 17-0998-01), followed by incubating at room temperature for 30 min. The mixture was then centrifuged through a 0.22 μm centrifuge filter and the flow-through, containing the unbound protein, was collected for analysis on an SDS-PAGE gel. 35 μL of 1.5 M NaCl was added to heparin-Sepharose resin and incubated at room temperature (RT) for 10 min to elute the remaining heparin-bound protein from the heparin-Sepharose. Samples of purified WT rHuADA2 and tested variants, before and after mixing with the heparin-Sepharose resin, were analyzed by SDS-PAGE to compare the degree of heparin binding.

[3] = Adenosine deaminase (ADA) enzymatic activity assay kit; format: biochemical; conditions: for adenosine deaminase activity mU/mL / ΔA/min, adenosine deaminase activity: protein diluted to 5 μg/mL, serially diluted 2 fold (Table 21); for % activity vs. WT: relative to rHuADA2 WT (Table 21)

Molecule	Average OD450, heparin binding ELISA ([1]; Set 1)	heparin binding compared to WT [2]	Heparin Column Binding [2]	enzymatic activity relative to WT rHuADA2 [3]	adenosine deaminase activity mU/mL [3] [mU/mL]	ΔA/min, adenosine deaminase activity [3]	% activity vs. WT [3] [%]	Average OD450, heparin binding ELISA ([1]; Set 2)
B1	0.2	attenuated heparin binding	Reduced	improved enzymatic activity	123.5	53.7	158.3	
B2		attenuated heparin binding	Reduced	improved enzymatic activity	127.3	55.4	163.2	0.26
B3		reduced heparin binding	Reduced	reduced adenosine deaminase activity	15.9	6.9	20.3	
B4			Reduced		78.4	34.1	100.5	
B5		reduced heparin binding	Reduced	reduced adenosine deaminase activity	34.3	14.9	44	
B6		not attenuated		improved enzymatic activity	89.1	38.8	114.2	
B7		reduced heparin binding	Reduced	reduced adenosine deaminase activity	53.3	23.2	68.4	
B8			Reduced		117.6	51.1	150.7	0.17
B9			Reduced		72.8	31.7	93.3	
B10		attenuated heparin binding	Reduced	improved enzymatic activity	115.9	50.4	148.5	0.18
B11			Reduced		81.8	35.5	104.8	
B12	0.21	attenuated heparin binding	Reduced	improved enzymatic activity	108.1	47	138.6	
B13			Reduced		59.2	25.8	75.9	
B14			Reduced		96.9	42.1	124.2	
B15			Reduced		80.2	34.9	102.8	

Source: US9969998B2, “Compositions of adenosine deaminase-2 (ADA2), variants thereof and methods of using same” (Halozyme, Inc., priority 2014, dated 2018)
